# Test results from US20190276499A1, “Protein VII Fragments and Methods of Use Thereof for the Treatment of Inflammatory Disorders” (priority 2016, published 2019).
# B1: protein VII: mature protein VII of human adenovirus type 5 (SEQ ID NO:1), expressed in cells, mostly with C-terminal HA tag (protein)
# chain: AKKRSDQHPVRVRGHYRAPWGAHKRGRTGRTTVDDAIDAVVEEARNYTPTPPPVSTVDAAIQTVVRGARRYAKMKRRRRRVARRHRRRPGTAAQRAAAALLNRARRTGRRAAMRAARRLAAGIVTVPPRSRRRAAAAAAAAISAMTQGRRGNVYWVRDSVSGLRVPVRTRPPRN
# modifications: C-terminal HA tag; Human adenovirus 5
# What was measured:
# HMGB1 [1] = molecular target: T1, HMGB1 (Homo sapiens, UniProt P09429); test: Fluorescence recovery after photobleaching (FRAP) of HMGB1-mGFP; assay type: cell-based
# T1 sequence (P09429 1-215): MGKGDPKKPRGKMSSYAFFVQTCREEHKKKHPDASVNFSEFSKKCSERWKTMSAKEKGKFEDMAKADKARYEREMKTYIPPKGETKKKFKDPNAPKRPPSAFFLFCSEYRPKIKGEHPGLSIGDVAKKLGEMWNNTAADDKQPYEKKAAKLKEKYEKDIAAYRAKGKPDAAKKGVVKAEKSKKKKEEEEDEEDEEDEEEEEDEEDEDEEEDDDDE
# Procedure: Full-length HMGB1 was cloned from pcDNA3.1 Flag-hHMGB1 (Addgene 31609) into pEGFP-N1 containing a L221K mutation to prevent dimerization of GFP molecules (Zacharias et al. (2002) Science 296:913-916). A549 cells were induced to express protein VII for four days with doxycycline in glass-bottom dishes. Cells were then transfected with the construct that constitutively expresses HMGB1 with a monomeric GFP C-terminal tag. FRAP was carried out using standard methods on a Zeiss LSM confocal microscope. Diffusion coefficients were calculated using the “simFRAP” algorithm (imagej.nih.gov/ij/plugins/simfrap/index.html), a simulation based approach to FRAP analysis (Blumenthal et al. (2015) Sci. Rep., 5:11655).
# LPS induced lung injury = test: Murine model of LPS induced lung injury, BAL fluid analysis; assay type: in vivo, mouse; settings: 24 hours after LPS exposure, versus mice expressing GFP
# Procedure: All mice were housed in SPF conditions. All studies in mice were carried out in accordance with the recommendations in the Guide for the Care and Use of Laboratory Animals of the National Institutes of Health. C57BL/6J male mice aged 8-10 weeks were used for experiments. Mice were sedated with ketamine and xylazine. Once sedated, mice underwent orotrachial intubation, as described (Das et al. (2013) J. Vis. Exp., (73):e50318), with a 20G angiocatheter from BD (Franklin Lakes, N.J.). Mice subsequently received 5e10 GC of recombinant adenovirus expressing VII-GFP or GFP purified as described above. Four days after infection, mice were exposed to aerosolized LPS, 3 mg/mL for 30 minutes as described (Jeyaseelan et al. (2004) Infect. Immun., 72:7247-7256). One day after LPS exposure, BAL, and lung tissue were harvested as detailed (Nick et al. (2000) J. Immunol., 164:2151-2159) and examined for HMGB1 content (ELISA, Chondrex 6010) and neutrophil count (hematoxylin and eosin stain kit EMD 65044/93). Immunostaining was carried out using standard methods. A minimum of four biological replicates were used for each condition studied. Mice were assigned a random number and color at the start of the experiment and were randomized. Technicians carrying out the experiments were blinded to the identity of the samples. Tissue samples were assigned a random study number such that the technician performing the analysis was blinded. Unblinding for the purpose of data analysis occurred only after all data had been collected.
# HMGB1 [2] = molecular target: T1, HMGB1; test: Co-immunoprecipitation of HMGB1 with protein VII-HA in A549 cells; assay type: cell-based; set-up: endogenous in cells; host or cells: A549; settings: A549 cells induced 4 days
# Procedure: A549 cells were induced to express protein VII with doxycycline for four days as described above. Approximately 4×10^7 cells were harvested and pelleted for each immunoprecipitation reaction. Cell pellets were resuspended in 500 μl of IC wash buffer with protease inhibitors (20 mM HEPES pH 7.9, 110 mM KOAc, 2 mM MgCl2, 150 mM NaCl, 0.1% Tween-20, 0.1% Triton X) and incubated on ice for 10 minutes with intermittent vortexing to disrupt cells. Samples were then incubated on ice for 1 hour with 5 μl of benzonase (Millipore) added to each sample to digest DNA to ˜150 bp, which was confirmed by DNA isolation and agarose gel analysis. Samples were then sonicated in a Diagenode Bioruptre for 30 seconds on and 30 seconds off for five rounds at 4° C. and centrifuged at 14,000 g for 15 minutes at 4° C. Supernatants were then incubated rotating for 1 hour at 4° C. with 30 μl of HA-conjugated magnetic beads (Thermo Scientific) and washed three times for five minutes in IC buffer. Isolated proteins were eluted with 100 μl of 2 mg/ml HA peptide (Thermo Scientific) for 20 minutes rotating at 37° C. and separated on and SDS-PAGE gel. For protein separation by SDS-PAGE the NuPAGE IDE System was used (NuPAGE Novex 4-12% bis-tris 1.0 mm gels, Invitrogen, USA). Uninduced cells were used as a negative control. […]
# HMGB1 [3] = molecular target: T1, HMGB1; test: Precision cut lung slice (PCLS) immunofluorescence; assay type: cell-based; set-up: tissue National Disease Research Interchange (NDRI); host or cells: human precision cut lung slices; settings: PCLS from human donors
# Procedure: PCLS were obtained and prepared as described (Cooper et al. (2008) J. Allergy Clin. Immunol., 122:734-740; Koziol-White et al. (2011) Expert Rev. Respir. Med., 5:767-777). De-identified human lung tissue from donors was obtained from the National Disease Research Interchange (NDRI), Philadelphia, Pa. Samples were infected with 10^8 pfu of Ad5 per slice or 10^9 GC of rAd VII-GFP for 24 hours. Samples were fixed in 4% PFA at room temperature for 15 minutes and washed three times in PBS. Samples were permiabilized with 0.5% Triton X and washed twice more in PBS. Samples were then incubated with 3% BSA and 0.03% Triton X in PBS for 1 hour to block. Primary antibodies (DBP or HMGB1) were incubated in the same buffer for 1 hour and then samples were washed three times in PBS with 3% BSA, incubated with secondary antibodies and DAPI for 1 hour, and washed three more times. Whole slices were mounted on slides with mounting solution and imaged by confocal microscopy.
# HMGB1 [4] = molecular target: T1, HMGB1; test: Immunofluorescence of HMGB1 localization in A549 cells; assay type: cell-based; set-up: endogenous in cells; host or cells: A549
# Procedure: Cells were grown on glass coverslips in 24-well plates and either infected or induced with doxycycline (0.2 μg/mL). Cells were harvested for immunofluorescence at the indicated time points, washed in phosphate-buffered saline (PBS), fixed in 4% paraformaldehyde for 15 minutes and post-fixed with 100% ice-cold methanol for 5 minutes. Coverslips were then blocked and stained as described (Lilley et al. (2011) PLoS Pathog., 7:e1002084) and mounted using ProLong Gold Antifade Reagent (Life Technologies). Immunofluorescence was visualized using a Zeiss LSM Confocal microscope and ZEN 2011 software. Images were processed using ImageJ and assembled with Adobe CS6. All scale bars show in the Figures are 10 μm unless otherwise stated.
molecule,measurement,setting,value
B1,HMGB1 mobility by FRAP,"HMGB1 [1]; A549 cells expressing protein VII, HMGB1-mGFP",decreased HMGB1 diffusion
same,Fluorescence recovery after photo-bleaching of full-length HMGB1 and HMGB1 A box,HMGB1 [1]; upon expression of protein VII,dramatically delayed
same,HMGB1 in BAL fluid,LPS induced lung injury,significantly less HMGB1
same,Neutrophils in BAL fluid,LPS induced lung injury,fewer neutrophils
same,HMGB1 co-immunoprecipitation with protein VII,HMGB1 [2],confirmed
same,Relocalization of endogenous HMGB1 in lung slices,HMGB1 [3],sufficient to relocalize endogenous HMGB1
same,Relocalization of HMGB1 (immunofluorescence),HMGB1 [4],relocalization of HMGB1
